Laboratory results reported in publication PMC2756588.

What follows are binders tested against T1, Fus1, P11710 (assay: SPOT array). Details: median of control spots 1200.
T1 sequence (P11710 432-512, looked up): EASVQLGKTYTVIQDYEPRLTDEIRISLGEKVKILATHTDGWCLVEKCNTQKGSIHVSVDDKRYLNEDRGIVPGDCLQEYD

Binder	SPOT intensity
HGKRRAPLLLAKLDV	0
GERSRPLVISILSSA	3
LLLLFVPDSPYDPAI	1

Each binder was assayed against T2, Abp1, P15891 (assay: SPOT array). Details: median of control spots 935.
T2 sequence (P15891 535-592, looked up): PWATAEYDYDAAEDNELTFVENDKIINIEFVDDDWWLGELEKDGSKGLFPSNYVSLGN

Binder	SPOT intensity
HGKRRAPLLLAKLDV	79
GERSRPLVISILSSA	16
LLLLFVPDSPYDPAI	0

Each binder was assayed against T3, Bud14, P27637 (assay: SPOT array). Details: median of control spots 956.
T3 sequence (P27637 247-328, looked up): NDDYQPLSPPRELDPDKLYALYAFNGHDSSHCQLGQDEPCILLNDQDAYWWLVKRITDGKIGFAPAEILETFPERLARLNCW

Binder	SPOT intensity
HGKRRAPLLLAKLDV	14
GERSRPLVISILSSA	14
LLLLFVPDSPYDPAI	3

The binders below were run against Bem1-1, P29366 (assay: SPOT array). Details: median of control spots 4282.
Bem1-1, P29366, sequence (P29366 55-141): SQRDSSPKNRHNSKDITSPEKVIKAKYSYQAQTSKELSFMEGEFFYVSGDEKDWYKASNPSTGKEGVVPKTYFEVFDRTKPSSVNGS

Binder	SPOT intensity
HGKRRAPLLLAKLDV	0
GERSRPLVISILSSA	0
LLLLFVPDSPYDPAI	0

The binders below were run against T4, Sla1-3, P32790 (assay: SPOT array). Details: median of control spots 5475.
T4 sequence (P32790 344-424, looked up): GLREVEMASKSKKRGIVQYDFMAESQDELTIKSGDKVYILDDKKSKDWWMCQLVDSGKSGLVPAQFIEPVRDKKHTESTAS

Binder	SPOT intensity
HGKRRAPLLLAKLDV	1
GERSRPLVISILSSA	0
LLLLFVPDSPYDPAI	2

These binders were tested against Myo3, P36006 (assay: SPOT array). Details: median of control spots 468.

Binder	SPOT intensity
HGKRRAPLLLAKLDV	5
GERSRPLVISILSSA	5
LLLLFVPDSPYDPAI	0

Each binder was assayed against T5, Bbc1, P47068 (assay: SPOT array). Details: median of control spots 796.
T5 sequence (P47068 1-78, looked up): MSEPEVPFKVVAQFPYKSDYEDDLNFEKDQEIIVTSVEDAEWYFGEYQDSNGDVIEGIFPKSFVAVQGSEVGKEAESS

Binder	SPOT intensity
HGKRRAPLLLAKLDV	17
GERSRPLVISILSSA	0
LLLLFVPDSPYDPAI	0

The binders below were run against T6, Pin3, Q06449 (assay: SPOT array). Details: median of control spots 2171.
T6 sequence (Q06449 53-122, looked up): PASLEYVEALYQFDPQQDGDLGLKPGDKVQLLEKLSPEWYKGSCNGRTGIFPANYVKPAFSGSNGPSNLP

Binder	SPOT intensity
HGKRRAPLLLAKLDV	9
GERSRPLVISILSSA	26
LLLLFVPDSPYDPAI	0

The binders below were run against Rvs167, P39743 (assay: SPOT array). Details: median of control spots 2707.
Rvs167, P39743, sequence (P39743 419-482): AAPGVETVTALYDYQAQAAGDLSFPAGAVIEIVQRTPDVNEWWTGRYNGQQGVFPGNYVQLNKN

Binder	SPOT intensity
HGKRRAPLLLAKLDV	0
GERSRPLVISILSSA	0
LLLLFVPDSPYDPAI	0

What follows are binders tested against Sho1, P40073 (assay: SPOT array). Details: median of control spots 1148.
Sho1, P40073, sequence (P40073 287-367): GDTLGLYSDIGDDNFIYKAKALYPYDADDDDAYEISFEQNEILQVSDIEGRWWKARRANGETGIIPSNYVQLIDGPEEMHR

Binder	SPOT intensity
HGKRRAPLLLAKLDV	85
GERSRPLVISILSSA	38
LLLLFVPDSPYDPAI	0

The binders below were run against T7, Hse1, P38753 (assay: SPOT array). Details: median of control spots 1727.
T7 sequence (P38753 208-285, looked up): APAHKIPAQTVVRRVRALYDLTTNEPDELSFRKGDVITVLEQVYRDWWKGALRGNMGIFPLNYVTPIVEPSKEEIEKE

Binder	SPOT intensity
HGKRRAPLLLAKLDV	0
GERSRPLVISILSSA	0
LLLLFVPDSPYDPAI	0

These binders were tested against T8, Nbp2, Q12163 (assay: SPOT array). Details: median of control spots 357.
T8 sequence (Q12163 103-180, looked up): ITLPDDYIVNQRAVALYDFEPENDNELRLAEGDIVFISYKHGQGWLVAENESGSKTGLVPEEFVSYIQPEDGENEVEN

Binder	SPOT intensity
HGKRRAPLLLAKLDV	1
GERSRPLVISILSSA	2
LLLLFVPDSPYDPAI	1

These binders were tested against T9, Sla1-2, P32790 (assay: SPOT array). Details: median of control spots 712.
T9 sequence (P32790 60-140, looked up): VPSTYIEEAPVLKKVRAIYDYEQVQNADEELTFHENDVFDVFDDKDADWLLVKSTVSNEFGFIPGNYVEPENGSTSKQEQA

Binder	SPOT intensity
HGKRRAPLLLAKLDV	0
GERSRPLVISILSSA	1
LLLLFVPDSPYDPAI	0

Each binder was assayed against T10, Lsb3, P43603 (assay: SPOT array). Details: median of control spots 406.
T10 sequence (P43603 385-451, looked up): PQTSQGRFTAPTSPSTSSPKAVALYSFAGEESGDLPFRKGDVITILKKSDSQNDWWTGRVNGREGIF

Binder	SPOT intensity
HGKRRAPLLLAKLDV	0
GERSRPLVISILSSA	0
LLLLFVPDSPYDPAI	0

What follows are binders tested against T11, Boi1, P38041 (assay: SPOT array). Details: median of control spots 1162.
T11 sequence (P38041 1-86, looked up): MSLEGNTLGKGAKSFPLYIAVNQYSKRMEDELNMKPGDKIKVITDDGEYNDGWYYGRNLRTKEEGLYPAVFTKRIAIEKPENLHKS

Binder	SPOT intensity
HGKRRAPLLLAKLDV	0
GERSRPLVISILSSA	2
LLLLFVPDSPYDPAI	1

These binders were tested against T12, Hof1, Q05080 (assay: SPOT array). Details: median of control spots 4086.
T12 sequence (Q05080 590-669, looked up): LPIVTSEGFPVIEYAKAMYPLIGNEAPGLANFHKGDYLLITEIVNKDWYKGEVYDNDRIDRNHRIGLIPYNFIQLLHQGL

Binder	SPOT intensity
HGKRRAPLLLAKLDV	0
GERSRPLVISILSSA	0
LLLLFVPDSPYDPAI	0

The binders below were run against T13, Bzz1-1, P38822 (assay: SPOT array). Details: median of control spots 4446.
T13 sequence (P38822 478-572, looked up): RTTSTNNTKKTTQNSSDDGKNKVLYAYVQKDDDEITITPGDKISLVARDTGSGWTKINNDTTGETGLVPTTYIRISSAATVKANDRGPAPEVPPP

Binder	SPOT intensity
HGKRRAPLLLAKLDV	0
GERSRPLVISILSSA	3
LLLLFVPDSPYDPAI	0

The binders below were run against T14, Myo5, Q04439 (assay: SPOT array). Details: median of control spots 471.
T14 sequence (Q04439 1072-1160, looked up): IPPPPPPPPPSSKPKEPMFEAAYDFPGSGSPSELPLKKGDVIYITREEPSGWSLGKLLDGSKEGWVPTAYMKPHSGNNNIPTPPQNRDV

Binder	SPOT intensity
HGKRRAPLLLAKLDV	0
GERSRPLVISILSSA	0
LLLLFVPDSPYDPAI	0

What follows are binders tested against T15, Lsb1, P53281 (assay: SPOT array). Details: median of control spots 388.
T15 sequence (P53281 45-122, looked up): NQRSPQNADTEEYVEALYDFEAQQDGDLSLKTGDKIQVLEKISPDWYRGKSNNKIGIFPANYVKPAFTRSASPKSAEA

Binder	SPOT intensity
HGKRRAPLLLAKLDV	0
GERSRPLVISILSSA	0
LLLLFVPDSPYDPAI	0

The binders below were run against T16, Boi2, P39969 (assay: SPOT array). Details: median of control spots 1161.
T16 sequence (P39969 32-116, looked up): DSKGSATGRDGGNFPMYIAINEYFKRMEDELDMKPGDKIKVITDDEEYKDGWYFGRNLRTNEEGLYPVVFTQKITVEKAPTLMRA

Binder	SPOT intensity
HGKRRAPLLLAKLDV	0
GERSRPLVISILSSA	0
LLLLFVPDSPYDPAI	0

The binders below were run against GST (assay: SPOT array). Details: median of control spots 978.

Binder	SPOT intensity
HGKRRAPLLLAKLDV	1
GERSRPLVISILSSA	0
LLLLFVPDSPYDPAI	1

The binders below were run against T17, Lsb4, P32793 (assay: SPOT array). Details: median of control spots 397.
T17 sequence (P32793 402-468, looked up): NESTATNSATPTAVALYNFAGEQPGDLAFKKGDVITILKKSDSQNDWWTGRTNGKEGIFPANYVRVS

Binder	SPOT intensity
HGKRRAPLLLAKLDV	4
GERSRPLVISILSSA	4
LLLLFVPDSPYDPAI	0

What follows are binders tested against T18, Bzz1-2, P38822 (assay: SPOT array). Details: median of control spots 4538.
T18 sequence (P38822 568-633, looked up): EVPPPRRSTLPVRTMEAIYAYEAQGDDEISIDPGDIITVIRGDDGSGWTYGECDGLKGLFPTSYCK

Binder	SPOT intensity
HGKRRAPLLLAKLDV	1
GERSRPLVISILSSA	1
LLLLFVPDSPYDPAI	0

What follows are binders tested against T19, Cdc25, P04821 (assay: SPOT array). Details: median of control spots 969.
T19 sequence (P04821 50-136, looked up): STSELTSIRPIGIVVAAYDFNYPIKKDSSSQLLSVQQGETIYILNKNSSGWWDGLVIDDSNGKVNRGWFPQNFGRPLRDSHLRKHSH

Binder	SPOT intensity
HGKRRAPLLLAKLDV	7
GERSRPLVISILSSA	16
LLLLFVPDSPYDPAI	0

The binders below were run against T20, Pex13, P80667 (assay: SPOT array). Details: median of control spots 1341.
T20 sequence (P80667 295-386, looked up): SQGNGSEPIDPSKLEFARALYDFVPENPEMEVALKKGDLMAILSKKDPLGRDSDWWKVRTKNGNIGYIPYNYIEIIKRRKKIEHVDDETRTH

Binder	SPOT intensity
HGKRRAPLLLAKLDV	5
GERSRPLVISILSSA	39
LLLLFVPDSPYDPAI	0

The binders below were run against Bem1-2, P29366 (assay: SPOT array). Details: median of control spots 4347.
Bem1-2, P29366, sequence (P29366 139-227): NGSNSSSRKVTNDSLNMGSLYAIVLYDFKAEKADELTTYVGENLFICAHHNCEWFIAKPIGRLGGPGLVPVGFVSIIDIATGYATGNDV

Binder	SPOT intensity
HGKRRAPLLLAKLDV	0
GERSRPLVISILSSA	0
LLLLFVPDSPYDPAI	0

Each binder was assayed against T21, Cyk3, Q07533 (assay: SPOT array). Details: median of control spots 1451.
T21 sequence (Q07533 1-83, looked up): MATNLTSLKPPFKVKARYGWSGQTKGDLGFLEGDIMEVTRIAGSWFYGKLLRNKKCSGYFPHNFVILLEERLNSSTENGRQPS

Binder	SPOT intensity
HGKRRAPLLLAKLDV	0
GERSRPLVISILSSA	0
LLLLFVPDSPYDPAI	0
